Test [1] concerns the target RVFV Gn (crystallization construct) (Rift Valley fever virus, UniProt P21401). Briefly: SEC. To be noted: both partners purified.
The target in test [2] is SFTSV Gn glycoprotein (residues 20-341) (Severe fever with thrombocytopenia …, UniProt R4V2Q5). Briefly: ELISA. To be noted: both partners purified. (In general: In an ELISA, binding on a coated surface is turned into a signal by an enzyme label.)

This note sets out measurements from article PMC6315105 (Cell Reports, 2018).

For orientation: stoichiometry N means a count of units in the complex or per binding partner.

Sequence of SFTSV Gn glycoprotein (residues 20-341) (R4V2Q5 whole entry, looked up, the tested form may be a part): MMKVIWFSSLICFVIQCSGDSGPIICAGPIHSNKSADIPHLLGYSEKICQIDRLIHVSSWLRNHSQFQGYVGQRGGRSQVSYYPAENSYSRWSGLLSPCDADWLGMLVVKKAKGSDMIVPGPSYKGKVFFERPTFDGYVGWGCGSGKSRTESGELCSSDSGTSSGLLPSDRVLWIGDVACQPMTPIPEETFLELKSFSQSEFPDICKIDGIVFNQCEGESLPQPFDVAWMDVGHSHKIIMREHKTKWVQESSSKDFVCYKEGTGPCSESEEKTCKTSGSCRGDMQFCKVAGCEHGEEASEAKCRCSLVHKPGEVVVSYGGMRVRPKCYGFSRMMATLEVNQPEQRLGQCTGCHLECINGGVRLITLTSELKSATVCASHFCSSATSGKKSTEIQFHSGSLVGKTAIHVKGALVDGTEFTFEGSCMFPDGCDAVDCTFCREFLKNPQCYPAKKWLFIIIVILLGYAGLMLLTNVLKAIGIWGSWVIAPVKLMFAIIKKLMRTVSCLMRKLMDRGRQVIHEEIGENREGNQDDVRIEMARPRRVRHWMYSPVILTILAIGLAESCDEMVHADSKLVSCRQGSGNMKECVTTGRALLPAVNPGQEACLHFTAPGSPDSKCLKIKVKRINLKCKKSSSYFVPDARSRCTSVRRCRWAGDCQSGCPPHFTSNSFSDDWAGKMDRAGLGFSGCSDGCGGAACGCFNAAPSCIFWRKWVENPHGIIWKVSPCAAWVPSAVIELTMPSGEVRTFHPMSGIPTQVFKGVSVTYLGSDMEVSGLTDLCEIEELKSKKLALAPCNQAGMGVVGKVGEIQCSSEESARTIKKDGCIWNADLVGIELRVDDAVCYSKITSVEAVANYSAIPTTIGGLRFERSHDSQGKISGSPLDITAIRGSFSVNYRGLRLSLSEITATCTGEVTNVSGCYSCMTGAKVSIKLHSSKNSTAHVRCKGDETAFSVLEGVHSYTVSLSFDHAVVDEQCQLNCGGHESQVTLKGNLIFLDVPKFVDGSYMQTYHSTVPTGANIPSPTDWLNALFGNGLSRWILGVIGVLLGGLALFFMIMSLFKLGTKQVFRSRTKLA
Sequence of RVFV Gn (crystallization construct) (P21401 168-483): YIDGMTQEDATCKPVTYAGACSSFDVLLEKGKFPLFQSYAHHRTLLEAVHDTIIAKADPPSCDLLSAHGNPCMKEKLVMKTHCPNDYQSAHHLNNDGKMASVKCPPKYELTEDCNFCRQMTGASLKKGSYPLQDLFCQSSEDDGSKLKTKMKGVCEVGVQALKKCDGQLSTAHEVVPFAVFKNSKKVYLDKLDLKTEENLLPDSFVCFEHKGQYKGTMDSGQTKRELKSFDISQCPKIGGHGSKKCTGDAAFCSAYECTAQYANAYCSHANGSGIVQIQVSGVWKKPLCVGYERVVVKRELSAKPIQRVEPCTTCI

B1: Fab fragment of RV-Gn1 (Fab, V domains shown)
VH: TGSLEESGGRLVTPGTPLTLTCTVSGIDPNSDHMSWVRQAPGKGLEWIAIIYASGTTYYASWAKGRFTISKTSTTVDLRIASPTTEDTATYFCATYPNYPTDNLWGQGTLVTVSG
VL: TGMTQTPSPVSAAVGGTVTINCQASQSVYNNYLLSWYQQKPGQPPKRLIYSASTLASGVSSRFKGSGSGTQFTLTISDVQCDDAATYYCLGSYDGNSADCLAFGGGTEVVVK
notes: also called RV-Gn1 Fab; Fab RV-Gn1
In the case of B1, in test [1], the “stoichiometry N” value came out at 1.

B2: RV-Gn1 (full-length rabbit IgG) (antibody, V domains shown)
VH: QSLEESGGRLVTPGTPLTLTCTVSGIDPNSDHMSWVRQAPGKGLEWIAIIYASGTTYYASWAKGRFTISKTSTTVDLRIASPTTEDTATYFCATYPNYPTDNLWGQGTLVTVSS
VL: TGMTQTPSPVSAAVGGTVTINCQASQSVYNNYLLSWYQQKPGQPPKRLIYSASTLASGVSSRFKGSGSGTQFTLTISDVQCDDAATYYCLGSYDGNSADCLAFGGGTEVVVK
notes: also called RVFV-Gn1; source: rabbit hybridoma supernatant, purified (Protein G)
As for B2, the binding result in test [2] is “no binding (tested: 10μg/ml)”.
